The experiment has as its target zebrafish Ccr5 (Ccr5-like, on pax3a+ muscle stem cells of larval zebrafish) (zebrafish). The experiment in a line: cell-based or functional assay.

The substance “recombinant murine CCL8/MCP-2 (PeproTech) (from UniProt Q9Z121 24-97) (ligand)” gave a cell proliferation external to the site of injury in larval zebrafish (EdU) of 43% and a wound site proliferation in larval zebrafish (EdU) of 28.3%.
